The text below walks through data of publication PMC6750898.

For experiment [1], the target named is capsid associated protein P30 of bacteriophage PR772 (bacteriophage PR772). Nature of the experiment: cryo-EM structure; icosahedrally averaged (I4) single-particle reconstruction of purified wild-type PR772 virions; overall 2.75 Å, capsid 2.3 Å; de-novo model of the asymmetric unit; difference density map of the vertex region.
For experiment [2], the target named is penton protein P31 of bacteriophage PR772 (bacteriophage PR772). Nature of the experiment: cryo-EM structure; localized asymmetric (C1) reconstruction of the five-fold vertex after capsid signal subtraction (about 10 Å for the class with P2; 4.41 Å for the penton) and focused classification of the penton base (4.25 Å); models fitted as rigid bodies; purified wild-type virions.

The target in experiment [3] is host-recognition protein P5 of bacteriophage PR772 (bacteriophage PR772). Described as above.
For experiment [4], the target named is major capsid protein P3 of bacteriophage PR772 (bacteriophage PR772). Nature of the experiment: cryo-EM structure; icosahedrally averaged (I4) single-particle reconstruction of purified wild-type PR772 virions; overall 2.75 Å, capsid 2.3 Å; de-novo model of the asymmetric unit; difference density map of the vertex region.

As usually defined, the stoichiometry N is a count of units in the complex or per binding partner.

For the substance “capsid associated protein P30 of bacteriophage PR772 (natural protein)”, the stoichiometry N in experiment [1] was determined as 2.

In experiment [2], “host-recognition protein P5 of bacteriophage PR772 (natural protein)” displayed a stoichiometry N (copies of P5 in the penton base) of 3 and a stoichiometry N (copies of P31 in the penton base) of 2. Also, in experiment [3], the stoichiometry N was 3.

In experiment [4], “major capsid protein P3 of bacteriophage PR772 (natural protein)” registered a stoichiometry N of 3.

With “receptor-binding protein P2 of bacteriophage PR772 (natural protein)”, the percent of vertex sub-particles with a density representing P2 in experiment [3] is 16%.
